Test results from US11994512B2, “Single-cell genomic methods to generate ex vivo cell systems that recapitulate in vivo biology with improved fidelity” (Massachusetts Institute of Technology, priority 2018, dated 2024).

System: intracellular proteome of ENR+CD and ENR organoids
Test: LC-MS/MS TMT proteomics of ENR+CD versus ENR organoids
Format: cell-based, C57BL/6 mice
Conditions: for Average logFC / M1-1 Log2 Median Normalized / M1-2 Log2 Median Normalized / M2-1 Log2 Median Normalized / M2-2 Log2 Median Normalized: protein abundance, ENR+CD versus ENR organoids; for Average logFC: aggregate of the four sample pairs; for M1-1 Log2 Median Normalized: replicate M1-1; for M1-1 Log2 Median Normalized / M1-2 Log2 Median Normalized / M2-1 Log2 Median Normalized / M2-2 Log2 Median Normalized: log2 ratio; for M1-2 Log2 Median Normalized: replicate M1-2; for M2-1 Log2 Median Normalized: replicate M2-1; for M2-2 Log2 Median Normalized: replicate M2-2; for change: up = enriched in ENR+CD, down = enriched in ENR, FDR<0.05 and log fold change cut-off
From the text: Because PCs are highly secretory, protein-rich cells, Applicants sought to assess the total intracellular proteome between conditions through liquid chromatography mass spectrometry (LC-MS/MS)-based proteomics. Applicants quantified relative protein abundance across eight samples using isobaric mass tag labeling from four ENR and four ENR+CD samples (M1-1 through M2-2, first digit denotes biological donor, second digit denotes technical replicate) (FIG. 3A). Samples were processed and analyzed in a single 10-plex by LC-MS/MS (FIG. 9A).
To affirm the reproducibility of the associated proteins in the ENR+CD-enriched proteome, Applicants performed relative quantification within differentiation sets.
Mass spectrometry proteomics sample preparation, sequencing, and quantification. Organoid cell pellets were isolated from Matrigel with mechanical dissociation and washed (cold PBS 5X) to remove residual extracellular protein. Proteins were extracted from cell pellets with 8 M urea (Sigma), reduced with 5 mM DTT (Thermo Fisher Pierce) for 45 minutes, alkylated with 10 mM IAA (Sigma) for 45 minutes in the dark, and double digested with both Lysyl Endopeptidase “LysC” (Wako) and trypsin (Promega) overnight at RT. A small aliquot of cellular lysate was removed from each sample for protein quantification via the Pierce™ BCA Protein Assay Kit (Pierce). After proteolytic digestion, the samples were quenched using formic acid to a final concentration of 1.0% and subsequently desalted on 10 mg OASIS HLB solid phase columns (Waters).
The peptides were labeled with TMT-10 isobaric mass tag reagent according to manufacturer's instructions (ThermoFisher Scientific). The peptides were labeled at a 1:8 ratio of peptide to TMT reagent, followed by 1-hour incubation at RT with bench top shaking at 850 rpm. After incubation, a […] of labeled tryptic peptide was removed from each labeled condition, desalted with C18 stage tips, and analyzed via LC-MS/MS using a Thermo Fisher Q Exactive Plus Hybrid Mass Spectrometer (QE-Plus) coupled to a Thermo Fisher EASY-nLC 1000 liquid chromatograph to ensure isobaric label incorporation >95%. An additional 1.0 μg of labeled tryptic peptide was removed from each channel, mixed together, desalted on a C18 stage tip, and analyzed via LC-MS to ensure equal relative protein loads. During these quality control steps, the labeled peptides were stored, unquenched at −80° C.

Molecule	Average logFC	M1-1 Log2 Median Normalized	M1-2 Log2 Median Normalized	M2-1 Log2 Median Normalized	M2-2 Log2 Median Normalized	change
E9Q5C9 (protein, UniProt E9Q5C9 1-702, looked up, full-length) MADTGLRRVVPSDLYPLVLRFLRDSQLSEVASKFAKATGATQQDANASSLLDIYSFWLNRSTKAPKVKLQSNGPVTKKAKKETSSSDSSEDSSEDEDKKAQGLPTQKAAAQVKRASVPQHAGKAAAKASESSSSEESSEEEEEDKKKKPVQQKAAKPQAKAVRPPAKKAESSESDSDSDSDSSSEEETPQTQKPKAAVAAKAQTKAEAKPGTPAKAQPKVANGKAAASSSSSSSSDDSEEEKKAAAPPKKTVPKKQVVAKAPVKVAAAPTQKSSSSEDSSSEEEEGQRQPMKKKAGPYSSVPPPSVPLPKKSPGTQAPKKAAAQTQPADSSDDSSDDSDSSSEEEKKPPAKTVVSKTPAKAAPVKKKAESSSDSSDSDSSEDEAPAKPVSTTKSPKPAVTPKPSAAKAVTTPKQPAGSNQKPQSRKADSSSSEEESSSSEEEEASKKSATTPKAKVTAKAAPAKQAPQAAGDSSSDSDSSSSEEEEKTPKPPAKKKAAGGAVSTPAPGKKAEAKSSSSSSSSSSEDSSEEEKKKKPKATTPKIQASKANGTPASLNGKAAKESEEEEEEEETEEKKKAAGTKPGSGKKRKQNETADEATTPQAKKVKLETPNTFPKRKKGERRASSPFRRVREEEIEVDSRVADNSFDAKRGAAGDWGERANQVLKFTKGKSFRHEKTKKKRGSYRGGSISVQVNSVKFDSE	−1.884	−1.968	−1.821	−1.5075	−2.239	down
O08529 (protein, UniProt O08529 1-700, looked up, full-length) MAGIAIKLAKDREAAEGLGSHERAIKYLNQDYETLRNECLEAGALFQDPSFPALPSSLGYKELGPYSSKTRGIEWKRPTEICADPQFIIGGATRTDICQGALGDCWLLAAIASLTLNEEILARVVPPDQSFQENYAGIFHFQFWQYGEWVEVVVDDRLPTKDGELLFVHSAEGSEFWSALLEKAYAKINGCYEALSGGATTEGFEDFTGGIAEWYELRKPPPNLFKIIQKALEKGSLLGCSIDITSAADSEAVTYQKLVKGHAYSVTGAEEVESSGSLQKLIRIRNPWGQVEWTGKWNDNCPSWNTVDPEVRANLTERQEDGEFWMSFSDFLRHYSRLEICNLTPDTLTCDSYKKWKLTKMDGNWRRGSTAGGCRNYPNTFWMNPQYLIKLEEEDEDEEDGERGCTFLVGLIQKHRRRQRKMGEDMHTIGFGIYEVPEELTGQTNIHLGKNFFLTTRARERSDTFINLREVLNRFKLPPGEYVLVPSTFEPHKDGDFCIRVFSEKKADYQAVDDEIEANIEEIDANEEDIDDGFRRLFVQLAGEDAEISAFELQTILRRVLAKRQDIKSDGFSIETCKIMVDMLDEDGSGKLGLKEFYILWTKIQKYQKIYREIDVDRSGTMNSYEMRKALEEAGFKLPCQLHQVIVARFADDELIIDFDNFVRCLVRLETLFKIFKQLDPENTGTIQLNLASWLSFSVL	1.309	1.421	1.297	1.1725	1.347	up
D3YUE4 (protein, UniProt D3YUE4 1-279, looked up, full-length) MAACAGGPGSWSENILKYFLRNNQITAEDGAEILWSHAANHKSQMNEALKSAAHMIEADVLLPSDGSEHGQPIMAHPPETSSDNTLQEWLAEVVKSNKGIKLDFKSLAAVRASMLFLDNMKQHLQRPVWINADILPGPNGSSKVVDAKAFLDTVTSFFPDVTFSLGWTTGWHPEKVNEGYSWSMVKEMDYICSELTQPVTFPVRAALVRQSCPQLLWLLTKSNRYSLTVWTGKDDIYSTEDLLYIRDYFNKTQVFYDISEPQNHEFKQAIGIRGHSLRI	−1.165	−0.678	−1.053	−1.3175	−1.611	down
O35280 (protein, UniProt O35280 1-476, looked up, full-length) MAVPFVEDWDLVQTLGEGAYGEVQLAVNRITEEAVAVKIVDMKRAIDCPENIKKEICINKMLSHENVVKFYGHRREGHIQYLFLEYCSGGELFDRIEPDIGMPEQDAQRFFHQLMAGVVYLHGIGITHRDIKPENLLLDERDNLKISDFGLATVFRHNNRERLLNKMCGTLPYVAPELLKRKEFHAEPVDVWSCGIVLTAMLAGELPWDQPSDSCQEYSDWKEKKTYLNPWKKIDSAPLALLHKILVETPSARITIPDIKKDRWYNKPLNRGAKRPRATSGGMSESSSGFSKHIHSNLDFSPVNNGSSEETVKFSSSQPEPRTGLSLWDTGPSNVDKLVQGISFSQPTCPEHMLVNSQLLGTPGSSQNPWQRLVKRMTRFFTKLDADKSYQCLKETFEKLGYQWKKSCMNQVTVSTTDRRNNKLIFKINLVEMDEKILVDFRLSKGDGLEFKRHFLKIKGKLSDVVSSQKVWFPVT	−1.266	−1.09	−1.001	−1.4995	−1.475	down
O09010 (protein, UniProt O09010 1-378, looked up, full-length) MLQRCGRRLLLALVGALLACLLVLTADPPPTPMPAERGRRALRSLAGSSGGAPASGSRAAVDPGVLTREVHSLSEYFSLLTRARRDADPPPGVASRQGDGHPRPPAEVLSPRDVFIAVKTTRKFHRARLDLLFETWISRHKEMTFIFTDGEDEALAKLTGNVVLTNCSSAHSRQALSCKMAVEYDRFIESGKKWFCHVDDDNYVNLRALLRLLASYPHTQDVYIGKPSLDRPIQATERISEHKVRPVHFWFATGGAGFCISRGLALKMGPWASGGHFMSTAERIRLPDDCTIGYIVEALLGVPLIRSGLFHSHLENLQQVPTTELHEQVTLSYGMFENKRNAVHIKGPFSVEADPSRFRSVHCHLYPDTPWCPRSAIF	1.464	1.443	1.37	1.4835	1.56	up
O09037 (protein, UniProt O09037 1-175, looked up, full-length) MLPHLVLNSISWMLLSCLLFVFQVQGEDFQKEVPSPRTSCPMGYKAYRSHCYALVMTPKSWFQADLVCQKRPSGHLVSILSGGEASFVSSLVNGRVDNYQDIWIGLHDPTMGQQPNGGGWEWSNSDVLNYLNWDGDPSSTVNRGHCGSLTASSGFLKWGDYYCDGTLPFVCKFKQ	−1.611	−1.64	−2.141	−1.5875	−1.077	down
B9EJ86 (protein, UniProt B9EJ86 1-889, looked up, full-length) MEAALADGEPDRSSLLGDSKDVLGPSTVVANSDEPQHLTPGKMSQRQGRDANPTPTRDLPQPSLSPASLHSQGFERGKEDISQNKDDSSLSMSKSKSESKLYNGSEKDSSTSSKLTKKESLKVQKKNYREEKKRATKELLSTITDPSVIVMADWLKIRGTLKSWTKLWCVLKPGVLLIYKTQKNGQWVGTVLLNACEIIERPSKKDGFCFKLFHPLEQSIWAVKGPKGEAVGSITQPLPSSYLIIRATSESDGRCWMDALELALKCSSLLKRTMVREGKEHDLSISSDSTHVTLYGLLRANNLHSGDNFQLNDSEIERQHFKDQDLYSDKSDKENDPEHDESDNEVLGKSEESDTDTSERQDDSYIDPEPVEPLKETTYMEQSHEELGEAGEASQTETVSEENKSLIWTLLKQVRPGMDLSRVVLPTFILEPRSFLDKLSDYYYHADFLSEAALEENPYFRLKKVVKWYLSGFYKKPKGLKKPYNPILGETFRCLWIHPRTNSKTFYIAEQVSHHPPISAFYVSNRKDGFCLSGSILAKSKFYGNSLSAILEGEARLTFLNRGEDYVMTMPYAHCKGILYGTMTLELGGTVNITCQKTGYSAILEFKLKPFLGSSDYVNQISGKLKLGKEVLATLEGHWDSEVFINDKKTDNSEIFWNPTPDIKQWRLIRHTVKFEEQDDFESEKLWQRVTKAINAKDQTEATQEKYVLEEAQRQAARDRKTKTQEWVCKLFELDPLTGEWHYKFSDTRPWDPLNDMIQFEKDGVIQTKVKHRTPMVSVPKMKHKPTRQQKKVVKGYSSPEPDIQDSSGSEAQSVKPSTRRKKGIDLGDIQSSIESIKQTQEEIKRNIMALRNHLLSSTPATDYFLQQKDYFVIFLLILLQVIINFIFK	1.24	1.242	1.864	1.0905	0.802	up
